Data on seven molecules can be found in article PMC4007306 (Archives of biochemistry and biophysics, 2013).

In data set [1] the target is AdoMet synthetase (MAT, MetK). Description: coupled enzyme assay, Dixon plot. The data set is classed as biochemical, Campylobacter jejuni.
Data set [2] concerns the target T1, AdoMet synthetase (MAT, MetK) (Pseudomonas aeruginosa, UniProt Q9I5Z0).
T1 sequence (Q9I5Z0 1-396): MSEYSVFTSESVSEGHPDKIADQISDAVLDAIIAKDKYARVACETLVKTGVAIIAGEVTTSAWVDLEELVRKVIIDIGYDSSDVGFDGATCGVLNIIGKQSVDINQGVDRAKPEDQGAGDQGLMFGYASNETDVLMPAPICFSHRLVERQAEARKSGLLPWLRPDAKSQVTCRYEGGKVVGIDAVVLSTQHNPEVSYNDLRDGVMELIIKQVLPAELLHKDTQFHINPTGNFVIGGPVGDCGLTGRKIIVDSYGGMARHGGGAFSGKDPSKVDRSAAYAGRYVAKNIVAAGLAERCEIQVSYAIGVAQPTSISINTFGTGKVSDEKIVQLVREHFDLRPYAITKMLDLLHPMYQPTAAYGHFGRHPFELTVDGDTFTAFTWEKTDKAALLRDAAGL
The data set is described as follows: coupled enzyme assay, Dixon plot. In kind it is biochemical.

The target in data set [3] is S-adenosylmethionine synthetase (AdoMet synthetase, MAT) from Neisseria meningitidis WUE2594 (Neisseria meningitidis WUE2594). The data set is described as follows: native gel or EMSA. Background: Mobility shift assays separate free from complexed probe on a gel.
Data set [4] has the same target. Description: dynamic light scattering.
Substrate in data set [5]: CSCC[C@H](N)C(=O)O
The data set is described as follows: coupled pyrophosphate enzyme assay, steady-state kinetics. In kind it is biochemical, Pseudomonas aeruginosa. The conditions noted are these: MgATP L-methionine binding site of the active site.

The data set “dynamic light scattering” concerns the molecule itself. The data set is described as follows: dynamic light scattering.
Substrate in data set [6]: CCOC(=O)[C@@H](N)CCSC
The data set is described as follows: coupled pyrophosphate enzyme assay, alternative substrate kinetics. In kind it is biochemical, Escherichia coli. The conditions noted are these: MgATP L-methionine binding site.

Substrate in data set [7]: COC(=O)[C@@H](N)CCSC
The data set is described as above. The data set is classed as biochemical, Escherichia coli. As to conditions: MgATP L-methionine binding site.

In general, Ki refers to a dissociation constant, usually derived from enzyme kinetics or from competition with a known ligand. Read a low Ki as a stronger hold on the target. For the molecule `CSCC[C@H](N)CC(=O)O` [β-methionine, (R)-3-amino-5-(methylthio)pentanoic acid], the Ki in data set [1] is ~7 mM.

With `NC(=O)SC[C@H](N)C(=O)O` [S-carbamyl-L-cysteine], in data set [2], the Ki is ~4 mM.

The term stoichiometry N denotes a count of units in the complex or per binding partner. Turning to “S-adenosylmethionine synthetase (AdoMet synthetase, MAT) from Neisseria meningitidis WUE2594 (enzyme)”, the stoichiometry N in data set [3] and in data set [4] was 4 in each case.

B1: S-adenosylmethionine synthetase (AdoMet synthetase, MAT) from Pseudomonas aeruginosa PA01 (enzyme, UniProt B7V4D3 1-396, looked up)
chain: MSEYSVFTSESVSEGHPDKIADQISDAVLDAIIAKDKYARVACETLVKTGVAIIAGEVTTSAWVDLEELVRKVIIDIGYDSSDVGFDGATCGVLNIIGKQSVDINQGVDRAKPEDQGAGDQGLMFGYASNETDVLMPAPICFSHRLVERQAEARKSGLLPWLRPDAKSQVTCRYEGGKVVGIDAVVLSTQHNPEVSYNDLRDGVMELIIKQVLPAELLHKDTQFHINPTGNFVIGGPVGDCGLTGRKIIVDSYGGMARHGGGAFSGKDPSKVDRSAAYAGRYVAKNIVAAGLAERCEIQVSYAIGVAQPTSISINTFGTGKVSDEKIVQLVREHFDLRPYAITKMLDLLHPMYQPTAAYGHFGRHPFELTVDGDTFTAFTWEKTDKAALLRDAAGL
By Km is commonly meant the concentration of substrate that gives half-maximal velocity. For the molecule B1, the Michaelis-Menten constant (Km) in data set [5] is 40 ± 5 µM. Besides, the “stoichiometry N” value in “dynamic light scattering” was found to be 4.

B2: AdoMet synthetase (MAT, MetK) (Escherichia coli K-12) (protein)
chain: AKHLFTSESVSEGHPDKIADQISDAVLDAILEQDPKARVACETYVKTGMVLVGGEITTSAWVDIEEITRNTVREIGYVHSDMGFDANSCAVLSAIGKQSPDINQGVDRADPLEQGAGDQGLMFGYATNETDVLMPAPITYAHRLVQRQAEVRKNGTLPWLRPDAKSQVTFQYDDGKIVGIDAVVLSTQHSEEIDQKSLQEAVMEEIIKPILPAEWLTSATKFFINPTGRFVIGGPMGDCGLTGRKIIVDTYGGMARHGGGAFSGKDPSKVDRSAAYAARYVAKNIVAAGLADRCEIQVSYAIGVAEPTSIMVETFGTEKVPSEQLTLLVREFFDLRPYGLIQMLDLLHPIYKETAAYGHFGREHFPWEKTDKAQLLRDAAGLK
Regarding B2, the Km worked out at 120 ± 10 µM in data set [6] and 170 ± 50 µM in data set [7].

B3: S-adenosylmethionine synthetase (AdoMet synthetase, MAT) from Escherichia coli K12 (enzyme, UniProt B1XFA4 1-384, looked up)
chain: MAKHLFTSESVSEGHPDKIADQISDAVLDAILEQDPKARVACETYVKTGMVLVGGEITTSAWVDIEEITRNTVREIGYVHSDMGFDANSCAVLSAIGKQSPDINQGVDRADPLEQGAGDQGLMFGYATNETDVLMPAPITYAHRLVQRQAEVRKNGTLPWLRPDAKSQVTFQYDDGKIVGIDAVVLSTQHSEEIDQKSLQEAVMEEIIKPILPAEWLTSATKFFINPTGRFVIGGPMGDCGLTGRKIIVDTYGGMARHGGGAFSGKDPSKVDRSAAYAARYVAKNIVAAGLADRCEIQVSYAIGVAEPTSIMVETFGTEKVPSEQLTLLVREFFDLRPYGLIQMLDLLHPIYKETAAYGHFGREHFPWEKTDKAQLLRDAAGLK
On to B3, for which the “stoichiometry N” value in “dynamic light scattering” is 4.

B4: S-adenosylmethionine synthetase (AdoMet synthetase, MAT) from Campylobacter jejuni 81-176 (enzyme, UniProt Q0P9F8 1-398, looked up)
chain: MYLFTSEVVSAGHPDKCADIIADTIVDILLKNDKNSRVASEVFVAGNKVVIGGEVKSNHKLSKADYDNLVKDVLKNIGYDGAGHFSKEQCLHPDEVDVMVFLNEQSPDINQGVDQEDGETGAGDQGIMFGFASCEAEEYMPAAISYARMLCDRVYAYAKANPHELGVDIKTQVTIDYGTKANFENCKPQSIHTIVVSAPCVESMKIEDLRSLVMKLILDSNLPKELFDPNKTRILINPTGKYVNHSSLHDSGLTGRKLIVDSFGGYSPIGGGAQSSKDYTKVDRSGLYAGRWLAKNIVAAGLAKKCIVQLSYAIGVAKPTSVSVDCMGTNTSVNDDVLSDFVMQNFSLTPNWIRDKFHLDKPSKETFLYADVAARGQVGQKDYPWEKLDALEQFKKLL
As to B4, the “stoichiometry N” value in the data set “dynamic light scattering” turned out to be 2.
